According to patent US20200024330A1:

Columns and labels:
[1] = target: WT JR-FL gp120 (HIV-1 (isolate JR-FL)); assay: ELISA on coated gp120; EC50 by nonlinear regression
[2] = target: JR-FL gp120 ΔV1/ΔV2 (HIV-1 (isolate JR-FL)); assay: as above
[3] = target: Env of the clade G HIV-1 pseudoviruses of the cross-clade 162-pseudovirus panel (n = 15); assay: cell-based or functional assay
[4] = target: HIV-1 JR-CSF Env E321aA (HIV-1 isolate JR-CSF) (UniProt P20871); assay: cell-based or functional assay
[5] = target: HIV-1 JR-CSF Env R419A (HIV-1 (isolate JR-CSF)) (UniProt P20871); assay: cell-based or functional assay
[6] = target: HIV-1 JR-CSF Env D325A (HIV-1 isolate JR-CSF) (UniProt P20871); assay: cell-based or functional assay
[7] = target: HIV-1 JR-CSF Env I420A (HIV-1 (isolate JR-CSF)) (UniProt P20871); assay: cell-based or functional assay
[8] = target: HIV-1 JR-CSF Env T388A (HIV-1 (isolate JR-CSF)) (UniProt P20871); assay: cell-based or functional assay
[9] = target: Env of all HIV-1 pseudoviruses of the cross-clade 162-pseudovirus panel (n = 162); assay: cell-based or functional assay
[10] = target: HIV-1 JR-CSF Env N392Q (HIV-1 (isolate JR-CSF)) (UniProt P20871); assay: cell-based or functional assay
[11] = target: HIV-1 JR-CSF Env N302A (HIV-1 JR-CSF) (UniProt P20871); assay: cell-based or functional assay
[12] = target: HIV-1 JR-CSF Env K421A (HIV-1 (isolate JR-CSF)) (UniProt P20871); assay: cell-based or functional assay
[13] = target: HIV-1 Env of isolate JR-CSF (HIV-1) (UniProt P20871); assay: cell-based or functional assay
[14] = target: HIV-1 JR-CSF Env N295A (HIV-1 JR-CSF) (UniProt P20871); assay: cell-based or functional assay
[15] = target: HIV-1 JR-CSF Env N301A (HIV-1 JR-CSF) (UniProt P20871); assay: cell-based or functional assay
[16] = target: HIV-1 JR-CSF Env T320A (HIV-1 isolate JR-CSF) (UniProt P20871); assay: cell-based or functional assay
[17] = target: Env of the clade AG HIV-1 pseudoviruses of the cross-clade 162-pseudovirus panel (n = 10); assay: cell-based or functional assay
[18] = target: Env of the clade F HIV-1 pseudoviruses of the cross-clade 162-pseudovirus panel (n = 15); assay: cell-based or functional assay
[19] = target: HIV-1 JR-CSF Env T413A (HIV-1 (isolate JR-CSF)) (UniProt P20871); assay: cell-based or functional assay
[20] = target: HIV-1 JR-CSF Env S199A (HIV-1 JR-CSF) (UniProt P20871); assay: cell-based or functional assay
[21] = target: HIV-1 JR-CSF Env N339A (HIV-1 isolate JR-CSF) (UniProt P20871); assay: cell-based or functional assay
[22] = target: HIV-1 JR-CSF Env T303A (HIV-1 JR-CSF) (UniProt P20871); assay: cell-based or functional assay
[23] = target: HIV-1 JR-CSF Env I323A (HIV-1 isolate JR-CSF) (UniProt P20871); assay: cell-based or functional assay
[24] = target: HIV-1 JR-CSF Env N262A (HIV-1 JR-CSF) (UniProt P20871); assay: cell-based or functional assay
[25] = target: HIV-1 Env of isolate MGRM-C-026 (HIV-1); assay: cell-based or functional assay
[26] = target: HIV-1 JR-CSF Env I424A (HIV-1 (isolate JR-CSF)) (UniProt P20871); assay: cell-based or functional assay
[27] = target: HIV-1 JR-CSF Env N241A (HIV-1 JR-CSF) (UniProt P20871); assay: cell-based or functional assay
[28] = target: HIV-1 JR-CSF Env F317A (HIV-1 isolate JR-CSF) (UniProt P20871); assay: cell-based or functional assay
[29] = target: HIV-1 JR-CSF Env N276A (HIV-1 JR-CSF) (UniProt P20871); assay: cell-based or functional assay
[30] = target: HIV-1 JR-CSF Env T394A (HIV-1 (isolate JR-CSF)) (UniProt P20871); assay: cell-based or functional assay
[31] = target: HIV-1 JR-CSF Env P299A (HIV-1 JR-CSF) (UniProt P20871); assay: cell-based or functional assay
[32] = target: HIV-1 JR-CSF Env N386A (HIV-1 isolate JR-CSF) (UniProt P20871); assay: cell-based or functional assay
[33] = target: HIV-1 JR-CSF Env S306A (HIV-1 JR-CSF) (UniProt P20871); assay: cell-based or functional assay
[34] = target: HIV-1 JR-CSF Env N332A (HIV-1 isolate JR-CSF) (UniProt P20871); assay: cell-based or functional assay
[35] = target: HIV-1 Env of isolate 92TH021 (HIV-1); assay: cell-based or functional assay
[36] = target: HIV-1 JR-CSF Env P313A (HIV-1 JR-CSF) (UniProt P20871); assay: cell-based or functional assay
[37] = target: Env of the clade A HIV-1 pseudoviruses of the cross-clade 162-pseudovirus panel (n = 26); assay: cell-based or functional assay
[38] = target: HIV-1 JR-CSF Env K343A (HIV-1 isolate JR-CSF) (UniProt P20871); assay: cell-based or functional assay
[39] = target: HIV-1 JR-CSF Env T297A (HIV-1 JR-CSF) (UniProt P20871); assay: cell-based or functional assay

B1: PGT-128 (antibody, V domains shown)
VH: QPQLQESGPTLVEASETLSLTCAVSGDSTAACNSFWGWVRQPPGKGLEWVGSLSHCASYWNRGWTYHNPSLKSRLTLALDTPKNLVFLKLNSVTAADTATYYCARFGGEVLRYTDWPKPAWVDLWGRGTLVTVSS
VL: QSALTQPPSASGSPGQSITISCTGTSNNFVSWYQQHAGKAPKLVIYDVNKRPSGVPDRFSGSKSGNTASLTVSGLQTDDEAVYYCGSLVGNWDVIFGGGTKLTVL
Q: What does the source list for B1?
A: EC50 [1]: 0.1 µg/mL; EC50 [2]: 0.3 µg/mL; Median IC50 against viruses neutralized with an IC50 <50 µg/ml [3]: 0.04 µg/mL; Fold IC50 increase relative to wild-type [4]: 1.3 fold; Fold IC50 increase relative to wild-type [5]: 0.5 fold; Fold IC50 increase relative to wild-type [6]: 0.5 fold; Fold IC50 increase relative to wild-type [7]: 0.8 fold; Fold IC50 increase relative to wild-type [8]: 1 fold; Median IC50 against viruses neutralized with an IC50 <50 µg/ml [9]: 0.07 µg/mL; Fold IC50 increase relative to wild-type [10]: 0.9 fold; Fold IC50 increase relative to wild-type [11]: 1.5 fold; Fold IC50 increase relative to wild-type [12]: 2 fold; Polyclonal Transfectant Neutralization Index (well 5114 A19) [13]: 136; Primary Neutralization Index (B cell culture well 5114 A19) [13]: 77.5; Fold IC50 increase relative to wild-type [14]: 1 fold; Fold IC50 increase relative to wild-type [15]: 10.7 fold; Fold IC50 increase relative to wild-type [16]: 1 fold; Median IC50 against viruses neutralized with an IC50 <50 µg/ml [17]: 0.67 µg/mL; Median IC50 against viruses neutralized with an IC50 <50 µg/ml [18]: 0.52 µg/mL; Fold IC50 increase relative to wild-type [19]: 1 fold; Fold IC50 increase relative to wild-type [20]: 1 fold; Fold IC50 increase relative to wild-type [21]: 0.8 fold; Fold IC50 increase relative to wild-type [22]: > 500 fold; Fold IC50 increase relative to wild-type [23]: 3 fold; Fold IC50 increase relative to wild-type [24]: 1.6 fold; Polyclonal Transfectant Neutralization Index (well 5114 A19) [25]: 32.2; Primary Neutralization Index (B cell culture well 5114 A19) [25]: 17.1; Fold IC50 increase relative to wild-type [26]: 1.3 fold; Fold IC50 increase relative to wild-type [27]: 0.7 fold; Fold IC50 increase relative to wild-type [28]: 0.8 fold; Fold IC50 increase relative to wild-type [29]: 0.6 fold; Fold IC50 increase relative to wild-type [30]: 3 fold; Fold IC50 increase relative to wild-type [31]: 1.2 fold; Fold IC50 increase relative to wild-type [32]: 1.1 fold; Fold IC50 increase relative to wild-type [33]: 1.1 fold; Fold IC50 increase relative to wild-type [34]: 1.4 fold; Polyclonal Transfectant Neutralization Index (well 5114 A19) [35]: 10; Primary Neutralization Index (B cell culture well 5114 A19) [35]: 6.6; Fold IC50 increase relative to wild-type [36]: 1 fold; Median IC50 against viruses neutralized with an IC50 <50 µg/ml [37]: 0.01 µg/mL; Fold IC50 increase relative to wild-type [38]: 1 fold; Fold IC50 increase relative to wild-type [39]: 1.1 fold
